# T1: human CD39 (gene ID 953) (human, UniProt P49961 5-510)
# T1 construct: Cell-surface form: transiently or stably transfected HEK cells, PBMCs, AML cell lines; also called native CD39; human CD39 transfected HEK cells
# T1 sequence: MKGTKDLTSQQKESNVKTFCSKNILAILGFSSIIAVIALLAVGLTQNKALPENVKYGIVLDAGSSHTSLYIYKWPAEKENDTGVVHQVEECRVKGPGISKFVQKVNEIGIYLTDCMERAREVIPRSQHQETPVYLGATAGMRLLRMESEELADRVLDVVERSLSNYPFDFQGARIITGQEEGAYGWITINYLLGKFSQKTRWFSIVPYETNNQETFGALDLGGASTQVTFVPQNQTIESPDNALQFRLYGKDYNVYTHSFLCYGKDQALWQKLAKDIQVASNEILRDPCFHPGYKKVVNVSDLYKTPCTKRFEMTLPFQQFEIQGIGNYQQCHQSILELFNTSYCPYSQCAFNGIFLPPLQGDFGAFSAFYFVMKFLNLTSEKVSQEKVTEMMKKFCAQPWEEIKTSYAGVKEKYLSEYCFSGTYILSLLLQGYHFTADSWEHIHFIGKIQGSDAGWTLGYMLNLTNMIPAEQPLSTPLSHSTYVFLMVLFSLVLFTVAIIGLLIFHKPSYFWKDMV
# T2: mouse CD39 (gene ID 12495) (mouse, UniProt P55772 1-510)
# T2 construct: whole, on cells; also called murine CD39; mouse CD39 transfected HEK cells
# T2 sequence (looked up): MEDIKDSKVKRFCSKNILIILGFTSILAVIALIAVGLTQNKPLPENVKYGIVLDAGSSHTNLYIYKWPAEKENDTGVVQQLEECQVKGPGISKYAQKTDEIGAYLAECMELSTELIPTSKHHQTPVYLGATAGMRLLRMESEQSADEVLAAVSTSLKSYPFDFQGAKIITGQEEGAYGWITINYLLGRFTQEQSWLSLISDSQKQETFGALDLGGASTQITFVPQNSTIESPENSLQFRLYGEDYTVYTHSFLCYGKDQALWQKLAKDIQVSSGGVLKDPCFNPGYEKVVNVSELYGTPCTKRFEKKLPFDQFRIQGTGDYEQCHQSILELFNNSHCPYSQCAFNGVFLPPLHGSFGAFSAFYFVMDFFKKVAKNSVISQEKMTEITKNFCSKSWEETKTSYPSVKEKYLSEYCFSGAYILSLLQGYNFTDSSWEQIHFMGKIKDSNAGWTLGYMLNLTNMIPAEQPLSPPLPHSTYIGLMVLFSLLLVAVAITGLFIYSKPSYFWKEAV
# What was measured:
# [1] = biological target: T1, human CD39 (gene ID 953); experiment: flow cytometry binning on human CD39-expressing cells; competitor: Fam. 2 human IgG hcAb in excess
# [2] = biological target: T1, human CD39 (gene ID 953); experiment: flow cytometry binning on human CD39-expressing cells; competitor: human IgG hcAb SB24 (Fam. 1) in excess
# [3] = biological target: T1, human CD39 (gene ID 953); experiment: flow cytometry binning on human CD39-expressing cells; competitor: Fam. 3 human IgG hcAb (SB134) in excess
# [4] = biological target: T1, human CD39 (gene ID 953); experiment: flow cytometry binning on human CD39-expressing cells; competitor: Fam. 5 human IgG hcAb (SB136) in excess
# [5] = biological target: T2, mouse CD39 (gene ID 12495); experiment: Table 1 specificity; sorted by binding to human (h) and/or mouse (m) CD39
# [6] = biological target: recombinant human CD39 ectodomain with C-terminal His6x tag (human) (UniProt P49961); experiment: BLI (Octet RED96), rabbit IgG hcAb on protein A biosensor, recombinant CD39 ectodomain as analyte at 200 ng/µl
# [7] = biological target: T1, human CD39 (gene ID 953); experiment: flow cytometry, rabbit IgG hcAb supernatant on transfected HEK cells
# [8] = biological target: recombinant human CD39 ectodomain with C-terminal His6x tag (human) (UniProt P49961); experiment: BLI (Octet RED96), rabbit IgG hcAb on protein A biosensor, recombinant CD39 ectodomain as analyte
# [9] = biological target: T1, human CD39 (gene ID 953); experiment: Table 1 specificity; binding to human (h) and/or mouse (m) CD39
# [10] = biological target: T2, mouse CD39 (gene ID 12495); experiment: as above
Molecule,percent inhibition of binding [1],percent inhibition of binding [2],percent inhibition of binding [3],percent inhibition of binding [4],binding result [5],koff [6],binding result [7],koff [8],binding result [9],binding result [10]
"monoclonal antibody against CD39, clone eBioA1",8%,17%,5%,75%,–,–,–,–,–,–
"SB137 rabbit IgG hcAb (Fc fusion, not shown: a dimerising Fc or GST, also called s- 17; family 6) VHH: QVKLQESGGGLGQAGGSLRLSCSASARTSATYVMGWFRQAPGKEREFVATISRSTSTTYYGDSVKGRFTISRDNAKNAVYLQMNSLKPEDTAVYYCATRAPRYGTASTRLSDYDNWGQGTQVTVSS",93%,-11%,95%,39%,no binding,–,–,–,–,–
"SB126 rabbit IgG hcAb (Fc fusion, not shown: a dimerising Fc or GST, also called family 2) VHH: QVQLVESGGGLVQAGDSLRLSCAASGRIPVTTTTAWFRQAPGKEREFVAAIRWNSGDAAYADSAKGRFTISRDSAKNTLYLQMNNLEPEDTAVYYCAAKYSRYAPQSTDYDYWGQGTQVTVSS",–,–,–,–,–,0.048 s⁻¹,binds,–,–,–
"SB129 rabbit IgG hcAb (Fc fusion, not shown: a dimerising Fc or GST, also called family 2) VHH: QVQLVESGGGLVQAGDSLRLSCAASGRTPITTTTGWFRQAPGKEREFVAAIRWNSGDAAYADSAKGRFTISRDSAKNTLYLQMNNLEPEDTAVYYCAAKYSRYAPQSTDYDYWGQGTQVTVSS",–,–,–,–,–,0.052 s⁻¹,binds,0.05 s⁻¹,–,–
"SB27 rabbit IgG hcAb (Fc fusion, not shown: a dimerising Fc or GST, also called family 1) VHH: QVQLVESGGGLVQPGGSLRLSCAASGSIFSFNAMGWYRQAPGKQRELVAAITSGGSTNYADSVKGRFTISRDNAKNTVYLQMNSLKPEDTAVYYCNGIGGSTWFGEDEYDYWGQGTQVTVSS",–,–,–,–,–,0.0031 s⁻¹,binds,–,–,–
"SB130 rabbit IgG hcAb (Fc fusion, not shown: a dimerising Fc or GST, also called family 1) VHH: QVQLVESGGGSVQPGGSLKLSCAASGSISSINAMGWYRQAPGKQRELVAAITSGGYTNYADSVKGRFTISRDNAKNTVYLQMNSLKPEDTAVYYCNAIGGSTWFGEDEYDNWGQGTQVTVSS",–,–,–,–,–,0.0015 s⁻¹,binds,–,–,–
"SB132 rabbit IgG hcAb (Fc fusion, not shown: a dimerising Fc or GST, also called family 1) VHH: QVQLVESGGGLVQPGGSLRLSCAASGSIFNFNAMGWYRQASGKQRELVAAITSGGSTNYADSVKGRFTISRGNAKNTVYLQMNSLKPEDTAVYYCHGIGGSTWFGEEEYDSWGQGTQVTVSS",–,–,–,–,–,0.0011 s⁻¹,binds,–,–,–
"SB90 rabbit IgG hcAb (Fc fusion, not shown: a dimerising Fc or GST, also called s+ 17; family 8) VHH: QVQLVESGGGLVQAGGSLRLSCAVSGLNNYAIGWLRQAPGKEREGVSCINCFDDFTYYADSVKGRFTVSCDNANHTVNLEMNSLRPEDTAVYYCAAGTCGSWWRYTPTPADGAWGRGTQVTVSS",–,–,–,–,–,–,–,–,binds,binds

# Second part, the molecule after the results:
percent inhibition of binding [1],percent inhibition of binding [2],percent inhibition of binding [3],percent inhibition of binding [4],binding result [5],koff [6],binding result [7],koff [8],binding result [9],binding result [10],Molecule
46%,9%,53%,37%,no binding,0.03 s⁻¹,–,–,–,–,"SB135 rabbit IgG hcAb (Fc fusion, not shown: a dimerising Fc or GST, also called l- 15; family 4) VHH: QVKLQESGGGLVQAGGSLRLSCTASEESFNKYGVGWFRQAPGKERAFVVAIRPSGVITSYADSVKGRFTISRDSAKNTAYLQMNSLKPEDTALYYCAANSRNTNYYRPNGYDYWGRGTQVTVSS"
–,–,–,–,–,0.028 s⁻¹,binds,–,–,–,"SB127 rabbit IgG hcAb (Fc fusion, not shown: a dimerising Fc or GST, also called family 2) VHH: QVQLVESGGGLVQAGDSLRLSCAASGRIPVTTTTAWFRQAPGKEREFVAAITWNSGNTNYADSAKGRFTISRDSAKNTLYLQMNNLKPEDTAVYYCAAKYSRYNLQSTDYDYWGQGTQVTVSS"
86%,14%,88%,42%,no binding,0.011 s⁻¹,–,–,–,–,"SB128 rabbit IgG hcAb (Fc fusion, not shown: a dimerising Fc or GST, also called l- 14b; family 2) VHH: QVQLVESGGGLVQAGDSLRLSCAASGRTPITTTTGWFRQAPGKEREFVAAIRWDSGNTNYADSAKGRFTISRDSAKNLLYLQMTNLKPEDTAVYYCAAKYSRYLPQSTDYDYWGQGTQVTVSS"
–,–,–,–,–,–,–,–,binds,binds,"SB32 rabbit IgG hcAb (Fc fusion, not shown: a dimerising Fc or GST, also called l- 14d; family 10) VHH: QVQLVESGGGLVQAGGSLRLSCAVSKRTSTHYAMGWFRQAPGLVREFVGVINWNGGTTYYADSVKGRFFISRDNAKNTMALQMNNLKPEDTAVYYCALKVDGLGLTSNEYQHWGQGTQVTVSS"
39%,99%,40%,53%,no binding,0.00099 s⁻¹,–,–,–,–,"SB24 rabbit IgG hcAb (Fc fusion, not shown: a dimerising Fc or GST, Bivalent VHH-Fc heavy chain antibody; also called l- 14a; family 1) VHH: QVQLVESGGGLVQPGGSLRLSCAASGSIFSFNAMGWYRQAPGKQRELVAAITSGGNTNYADSVKGRFAISRDNAKNTVYLQMSSLKPEDTAVYYCKGIGGSTWFGEDEPDYWGQGTQVTVSS"
–,–,–,–,–,0.00084 s⁻¹,binds,–,–,–,"SB131 rabbit IgG hcAb (Fc fusion, not shown: a dimerising Fc or GST, also called family 1) VHH: QVQLVESGGGLVQPGGSLRLSCAASESIVSFNAMGWYRQAPGKQRDLVAAITSGGRTNYAESVKGRFTISRDDAKNTVYLQMNSLKPEDTAVYYCHAIGGSTWFGEDEPDYWGQGTQVTVSS"
–,15%,58%,41%,no binding,0.012 s⁻¹,–,–,–,–,"SB134 rabbit IgG hcAb (Fc fusion, not shown: a dimerising Fc or GST, also called l- 5a; family 3) VHH: QVKLQESGGGWVQPGGSLRLSCAASGFTFRTHFMSWVRQAPGQGLEWVSGITSGGRTSYVDSVKGRFTISRDNAANTLYLQMNSLKPEDTAVYFCTKGDSGARGQGTQVTVSS"
98%,39%,96%,91%,–,–,–,–,–,binds,"SB39 rabbit IgG hcAb (Fc fusion, not shown: a dimerising Fc or GST, also called l- 11; family 7) VHH: QVQLVESGGGLVQPGGSLRLSCAASGFTLDYFAIGWFRQGPGKERDWVSCISKDGTTYYIDSVKGRFTISRDNAKNTGYLQMSGLKPDDTAVYYCARGAGGCQSDFGARGQGTQVTVSS"
–,–,–,–,–,–,–,–,binds,binds,"SB112 rabbit IgG hcAb (Fc fusion, not shown: a dimerising Fc or GST, also called l- 14c; family 9) VHH: QVQLQESGGGLVQAGGSLRLSCTASGRSFSSNAMGWFRQAPGKEREFVARINWSGSRTFYTDSVKGRFTISRDNAKNTMYLQMNSLKPEDTAVYYCAADPNYGSSITSGYTYWGQGTQVTVSS"
16%,-11%,0%,75%,no binding,0.0012 s⁻¹,–,–,–,–,"SB136 rabbit IgG hcAb (Fc fusion, not shown: a dimerising Fc or GST, also called s- 12; family 5) VHH: DVQLQASGGGLVQPGGSLRLSCAASGFRFSIYDMSWVRRPPGKGLEWVSSITSPGGTTYADSVKGRFTISRDNDKNTLYLQMNSLKPEDTAIYYCAKAYGGRSVVAQTARGQGTQVTVSS"

# Reference: patent publication US20240352144A1 (UNIVERSIT TSKLINIKUM HAMBURG EPPENDORF, published 2024)
